Substitutions are numbered along the chain they refer to. Names may count otherwise.
T1: human FcγRIIa(H) (human, UniProt P12318 36-217)
T1 construct: also called FcgRIIaH; FcγRIIa type H
T1 sequence: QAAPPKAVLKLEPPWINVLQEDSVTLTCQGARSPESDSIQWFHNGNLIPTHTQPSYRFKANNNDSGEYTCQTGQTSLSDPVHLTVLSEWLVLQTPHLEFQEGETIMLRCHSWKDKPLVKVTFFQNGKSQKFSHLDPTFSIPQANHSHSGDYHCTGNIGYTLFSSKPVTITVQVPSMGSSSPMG

T2: human FcγRIIa(R) (human, UniProt P12318 36-217)
T2 construct: also called FcgRIIaR; FcγRIIa type R
T2 chain: T1 sequence with H133R

T3: human FcγRIIb (human, UniProt P31994 43-217, limits assumed)
T3 construct: also called FcgRIIb
T3 sequence: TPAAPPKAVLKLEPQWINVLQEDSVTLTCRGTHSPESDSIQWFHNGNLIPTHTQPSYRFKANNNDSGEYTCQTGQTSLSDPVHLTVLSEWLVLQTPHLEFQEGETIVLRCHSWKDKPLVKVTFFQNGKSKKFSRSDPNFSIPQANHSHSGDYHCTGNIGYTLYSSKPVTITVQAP

B1: GpH7-B3 variant G237Q/GpL16-k0 (antibody, human IgG1)
heavy: not shown
light: DIVMTQSPLSLPVTPGEPASISCQASESLVHSNRNTYLHWYLQKPGQSPQLLIYKVSNRFSGVPDRFSGSGSGTDFTLKISRVEAEDVGVYYCSQNTHVPPTFGQGTKVEIE
notes: copies: 2 + 2
B2: GpH7-B3 variant L234D/GpL16-k0 (antibody, human IgG1)
heavy: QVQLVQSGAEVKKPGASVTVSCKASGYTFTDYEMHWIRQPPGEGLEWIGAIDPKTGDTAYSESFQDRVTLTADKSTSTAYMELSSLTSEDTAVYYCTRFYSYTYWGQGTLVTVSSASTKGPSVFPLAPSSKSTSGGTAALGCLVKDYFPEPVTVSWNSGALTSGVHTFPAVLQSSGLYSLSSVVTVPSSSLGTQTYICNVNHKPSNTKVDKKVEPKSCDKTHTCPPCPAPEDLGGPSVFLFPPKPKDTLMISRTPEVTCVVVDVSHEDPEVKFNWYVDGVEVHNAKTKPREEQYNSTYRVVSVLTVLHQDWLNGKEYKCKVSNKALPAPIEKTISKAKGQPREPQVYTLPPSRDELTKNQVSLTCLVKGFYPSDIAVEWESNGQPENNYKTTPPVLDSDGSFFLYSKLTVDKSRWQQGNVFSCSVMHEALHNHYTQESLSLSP
light: B1 light
notes: copies: 2 + 2
B3: GpH7-B3 variant L234A/GpL16-k0 (antibody, human IgG1)
heavy: not shown
light: B1 light
notes: copies: 2 + 2
B4: GpH7-B3 variant L235M/GpL16-k0 (antibody, human IgG1)
heavy: not shown
light: B1 light
notes: copies: 2 + 2
B5: GpH7-B3 variant L234H/GpL16-k0 (antibody, human IgG1)
heavy: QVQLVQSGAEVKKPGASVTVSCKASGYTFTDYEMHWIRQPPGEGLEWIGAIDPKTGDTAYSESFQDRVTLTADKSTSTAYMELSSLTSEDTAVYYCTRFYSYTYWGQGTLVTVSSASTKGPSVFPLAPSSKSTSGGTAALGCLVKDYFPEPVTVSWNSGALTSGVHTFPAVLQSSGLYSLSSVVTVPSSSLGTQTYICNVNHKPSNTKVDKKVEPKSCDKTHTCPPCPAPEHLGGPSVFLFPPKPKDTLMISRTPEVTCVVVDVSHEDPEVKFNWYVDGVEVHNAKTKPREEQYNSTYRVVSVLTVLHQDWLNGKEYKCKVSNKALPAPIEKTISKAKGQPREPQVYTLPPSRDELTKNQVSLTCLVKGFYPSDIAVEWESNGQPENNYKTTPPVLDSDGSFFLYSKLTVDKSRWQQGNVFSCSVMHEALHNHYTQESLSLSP
light: B1 light
notes: copies: 2 + 2
B6: GpH7-B3 variant L235G/GpL16-k0 (antibody, human IgG1)
heavy: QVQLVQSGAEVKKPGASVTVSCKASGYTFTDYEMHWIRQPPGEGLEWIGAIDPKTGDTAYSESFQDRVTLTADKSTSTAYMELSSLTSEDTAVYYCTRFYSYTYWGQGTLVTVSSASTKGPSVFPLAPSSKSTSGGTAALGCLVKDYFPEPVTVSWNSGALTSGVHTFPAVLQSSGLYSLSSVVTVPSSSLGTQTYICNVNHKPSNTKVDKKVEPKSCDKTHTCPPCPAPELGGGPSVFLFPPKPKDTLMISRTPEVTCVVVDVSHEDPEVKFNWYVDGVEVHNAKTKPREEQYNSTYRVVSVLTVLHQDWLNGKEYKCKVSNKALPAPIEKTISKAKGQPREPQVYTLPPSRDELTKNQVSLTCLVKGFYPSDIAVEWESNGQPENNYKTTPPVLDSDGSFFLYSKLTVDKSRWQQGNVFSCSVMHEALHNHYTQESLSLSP
light: B1 light
notes: copies: 2 + 2
B7: GpH7-B3 variant L234T/GpL16-k0 (antibody, human IgG1)
heavy: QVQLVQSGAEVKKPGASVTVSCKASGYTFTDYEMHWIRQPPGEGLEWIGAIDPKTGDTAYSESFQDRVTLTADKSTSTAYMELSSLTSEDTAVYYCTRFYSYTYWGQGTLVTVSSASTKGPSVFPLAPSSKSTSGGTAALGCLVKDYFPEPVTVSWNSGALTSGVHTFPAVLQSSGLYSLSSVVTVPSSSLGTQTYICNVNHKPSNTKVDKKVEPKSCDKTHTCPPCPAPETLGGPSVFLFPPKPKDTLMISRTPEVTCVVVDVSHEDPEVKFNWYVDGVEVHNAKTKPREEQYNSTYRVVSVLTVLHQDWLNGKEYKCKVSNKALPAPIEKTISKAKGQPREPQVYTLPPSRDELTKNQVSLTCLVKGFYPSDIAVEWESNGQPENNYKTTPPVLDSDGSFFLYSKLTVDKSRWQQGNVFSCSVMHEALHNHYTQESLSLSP
light: B1 light
notes: copies: 2 + 2
B8: GpH7-B3 variant L234P/GpL16-k0 (antibody, human IgG1)
heavy: not shown
light: B1 light
notes: copies: 2 + 2
B9: GpH7-B3 variant G237T/GpL16-k0 (antibody, human IgG1)
heavy: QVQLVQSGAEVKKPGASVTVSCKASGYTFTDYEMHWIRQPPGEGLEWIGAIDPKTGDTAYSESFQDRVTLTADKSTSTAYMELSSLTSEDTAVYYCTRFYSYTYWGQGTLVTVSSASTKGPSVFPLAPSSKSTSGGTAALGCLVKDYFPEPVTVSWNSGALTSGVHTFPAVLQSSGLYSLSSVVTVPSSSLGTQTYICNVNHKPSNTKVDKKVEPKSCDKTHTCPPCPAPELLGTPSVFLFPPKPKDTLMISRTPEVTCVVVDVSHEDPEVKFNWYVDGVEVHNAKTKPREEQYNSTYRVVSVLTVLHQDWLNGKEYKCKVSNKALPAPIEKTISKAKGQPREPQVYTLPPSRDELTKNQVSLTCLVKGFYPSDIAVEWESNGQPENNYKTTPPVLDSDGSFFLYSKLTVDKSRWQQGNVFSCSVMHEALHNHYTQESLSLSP
light: B1 light
notes: copies: 2 + 2
B10: GpH7-B3 variant L235H/GpL16-k0 (antibody, human IgG1)
heavy: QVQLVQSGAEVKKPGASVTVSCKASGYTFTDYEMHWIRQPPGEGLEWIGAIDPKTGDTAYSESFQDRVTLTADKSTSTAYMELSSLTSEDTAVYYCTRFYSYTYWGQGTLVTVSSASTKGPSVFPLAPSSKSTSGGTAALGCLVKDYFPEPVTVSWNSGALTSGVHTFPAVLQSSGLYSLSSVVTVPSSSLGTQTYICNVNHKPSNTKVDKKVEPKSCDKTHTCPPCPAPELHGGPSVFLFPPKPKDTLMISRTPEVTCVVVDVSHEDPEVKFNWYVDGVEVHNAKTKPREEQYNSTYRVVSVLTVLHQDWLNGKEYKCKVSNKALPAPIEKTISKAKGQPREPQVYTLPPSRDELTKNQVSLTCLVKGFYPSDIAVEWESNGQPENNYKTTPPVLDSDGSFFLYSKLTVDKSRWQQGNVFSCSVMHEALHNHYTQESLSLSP
light: B1 light
notes: copies: 2 + 2
B11: GpH7-B3 variant L234N/GpL16-k0 (antibody, human IgG1)
heavy: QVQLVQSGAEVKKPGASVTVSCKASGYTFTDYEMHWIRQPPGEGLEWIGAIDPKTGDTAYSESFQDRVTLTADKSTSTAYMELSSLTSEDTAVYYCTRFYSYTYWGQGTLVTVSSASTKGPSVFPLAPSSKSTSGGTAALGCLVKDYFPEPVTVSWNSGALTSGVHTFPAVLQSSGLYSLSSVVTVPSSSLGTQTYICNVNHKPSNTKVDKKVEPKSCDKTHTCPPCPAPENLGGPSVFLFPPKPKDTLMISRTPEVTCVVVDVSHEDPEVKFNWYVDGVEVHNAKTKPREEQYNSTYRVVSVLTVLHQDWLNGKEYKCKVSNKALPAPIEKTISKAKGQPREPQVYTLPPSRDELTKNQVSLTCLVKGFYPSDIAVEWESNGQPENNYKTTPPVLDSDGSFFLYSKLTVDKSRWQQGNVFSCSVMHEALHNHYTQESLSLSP
light: B1 light
notes: copies: 2 + 2
B12: GpH7-B3 variant L234K/GpL16-k0 (antibody, human IgG1)
heavy: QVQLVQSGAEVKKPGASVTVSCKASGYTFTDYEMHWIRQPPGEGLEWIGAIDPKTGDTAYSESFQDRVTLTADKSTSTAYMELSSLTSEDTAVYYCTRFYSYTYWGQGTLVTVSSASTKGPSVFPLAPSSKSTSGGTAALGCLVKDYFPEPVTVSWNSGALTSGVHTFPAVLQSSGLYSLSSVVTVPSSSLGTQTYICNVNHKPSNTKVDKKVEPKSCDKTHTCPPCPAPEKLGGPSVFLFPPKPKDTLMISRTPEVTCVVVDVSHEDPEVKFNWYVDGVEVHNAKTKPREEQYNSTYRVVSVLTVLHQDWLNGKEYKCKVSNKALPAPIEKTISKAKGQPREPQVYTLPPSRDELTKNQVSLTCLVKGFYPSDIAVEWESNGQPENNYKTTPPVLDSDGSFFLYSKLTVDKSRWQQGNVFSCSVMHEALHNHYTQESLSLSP
light: B1 light
notes: copies: 2 + 2
B13: GpH7-B3 variant G237R/GpL16-k0 (antibody, human IgG1)
heavy: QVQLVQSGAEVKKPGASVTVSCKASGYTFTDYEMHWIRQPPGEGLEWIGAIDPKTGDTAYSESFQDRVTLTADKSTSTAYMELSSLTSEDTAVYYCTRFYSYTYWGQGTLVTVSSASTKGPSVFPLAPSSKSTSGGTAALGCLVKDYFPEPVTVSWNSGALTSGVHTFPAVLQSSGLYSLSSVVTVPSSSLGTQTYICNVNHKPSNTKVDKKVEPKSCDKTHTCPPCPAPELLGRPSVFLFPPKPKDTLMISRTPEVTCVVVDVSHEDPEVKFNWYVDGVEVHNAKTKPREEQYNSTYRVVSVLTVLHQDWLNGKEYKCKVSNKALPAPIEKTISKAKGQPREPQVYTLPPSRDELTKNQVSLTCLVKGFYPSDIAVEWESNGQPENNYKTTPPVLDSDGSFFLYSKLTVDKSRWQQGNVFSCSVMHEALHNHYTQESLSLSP
light: B1 light
notes: copies: 2 + 2
B14: GpH7-B3 variant L235I/GpL16-k0 (antibody, human IgG1)
heavy: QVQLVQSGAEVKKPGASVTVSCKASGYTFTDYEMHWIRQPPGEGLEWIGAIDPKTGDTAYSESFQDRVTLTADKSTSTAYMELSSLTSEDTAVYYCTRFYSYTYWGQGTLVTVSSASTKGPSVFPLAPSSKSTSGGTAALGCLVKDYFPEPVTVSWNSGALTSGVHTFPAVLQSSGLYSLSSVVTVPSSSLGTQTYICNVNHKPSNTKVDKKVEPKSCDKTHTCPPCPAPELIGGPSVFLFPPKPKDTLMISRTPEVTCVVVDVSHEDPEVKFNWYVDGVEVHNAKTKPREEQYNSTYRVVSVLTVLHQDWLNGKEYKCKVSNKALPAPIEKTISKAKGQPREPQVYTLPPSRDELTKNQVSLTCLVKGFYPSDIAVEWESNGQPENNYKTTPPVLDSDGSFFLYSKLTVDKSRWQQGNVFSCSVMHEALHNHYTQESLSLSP
light: B1 light
notes: copies: 2 + 2

Target: T4, human FcγRIa (human, UniProt P12314 16-292, limits assumed)
T4 construct: also called FcgRIa; FcγRI (CD64)
T4 sequence (P12314 16-292 limits assumed): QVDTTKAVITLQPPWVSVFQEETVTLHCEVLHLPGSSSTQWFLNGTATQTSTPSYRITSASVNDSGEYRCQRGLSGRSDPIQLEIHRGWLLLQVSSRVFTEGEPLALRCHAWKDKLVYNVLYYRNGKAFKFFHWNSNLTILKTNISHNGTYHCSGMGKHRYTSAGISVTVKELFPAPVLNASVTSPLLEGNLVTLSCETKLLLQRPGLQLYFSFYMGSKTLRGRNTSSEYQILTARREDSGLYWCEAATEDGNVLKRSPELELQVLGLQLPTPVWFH
Assay: SPR (Biacore);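 also: antibody variants captured on sensor chip, Fcγ receptor flowed over at 25 °C, bound receptor normalized to amount of captured antibody, expressed relative to reference antibody set as 100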

| relative binding activity | Binder |
| --- | --- |
| 14 % of GpH7-B3/GpL16-k0 | B1 |
| 31 % of GpH7-B3/GpL16-k0 | B2 |
| 79 % of GpH7-B3/GpL16-k0 | B3 |
| 93 % of GpH7-B3/GpL16-k0 | B4 |
| 65 % of GpH7-B3/GpL16-k0 | B5 |
| 16 % of GpH7-B3/GpL16-k0 | B6 |
| 93 % of GpH7-B3/GpL16-k0 | B7 |
| 83 % of GpH7-B3/GpL16-k0 | B8 |
| 27 % of GpH7-B3/GpL16-k0 | B9 |
| 2 % of GpH7-B3/GpL16-k0 | B10 |
| 67 % of GpH7-B3/GpL16-k0 | B11 |
| 54 % of GpH7-B3/GpL16-k0 | B12 |
| 3 % of GpH7-B3/GpL16-k0 | B13 |
| 93 % of GpH7-B3/GpL16-k0 | B14 |

Target: T1, human FcγRIIa(H)
Assay: SPR (Biacore);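 also: antibody variants captured on sensor chip, Fcγ receptor flowed over at 25 °C, bound receptor normalized to amount of captured antibody, expressed relative to reference antibody set as 100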

| relative binding activity | Binder |
| --- | --- |
| 0 % of GpH7-B3/GpL16-k0 | B1 |
| 18 % of GpH7-B3/GpL16-k0 | B2 |
| 25 % of GpH7-B3/GpL16-k0 | B3 |
| 72 % of GpH7-B3/GpL16-k0 | B4 |
| 29 % of GpH7-B3/GpL16-k0 | B5 |
| 7 % of GpH7-B3/GpL16-k0 | B6 |
| 30 % of GpH7-B3/GpL16-k0 | B7 |
| 45 % of GpH7-B3/GpL16-k0 | B8 |
| 2 % of GpH7-B3/GpL16-k0 | B9 |
| 88 % of GpH7-B3/GpL16-k0 | B10 |
| 35 % of GpH7-B3/GpL16-k0 | B11 |
| 1 % of GpH7-B3/GpL16-k0 | B12 |
| -1 % of GpH7-B3/GpL16-k0 | B13 |
| 89 % of GpH7-B3/GpL16-k0 | B14 |

Target: T2, human FcγRIIa(R)
Assay: SPR (Biacore);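 also: antibody variants captured on sensor chip, Fcγ receptor flowed over at 25 °C, bound receptor normalized to amount of captured antibody, expressed relative to reference antibody set as 100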

| relative binding activity | Binder |
| --- | --- |
| 15 % of GpH7-B3/GpL16-k0 | B1 |
| 51 % of GpH7-B3/GpL16-k0 | B2 |
| 26 % of GpH7-B3/GpL16-k0 | B3 |
| 72 % of GpH7-B3/GpL16-k0 | B4 |
| 21 % of GpH7-B3/GpL16-k0 | B5 |
| 6 % of GpH7-B3/GpL16-k0 | B6 |
| 33 % of GpH7-B3/GpL16-k0 | B7 |
| 41 % of GpH7-B3/GpL16-k0 | B8 |
| 13 % of GpH7-B3/GpL16-k0 | B9 |
| 91 % of GpH7-B3/GpL16-k0 | B10 |
| 36 % of GpH7-B3/GpL16-k0 | B11 |
| -2 % of GpH7-B3/GpL16-k0 | B12 |
| 0 % of GpH7-B3/GpL16-k0 | B13 |
| 81 % of GpH7-B3/GpL16-k0 | B14 |

Target: T5, human FcγRIIIa(F) (human, UniProt P08637 17-208, limits assumed)
T5 construct: also called FcgRIIIaF; allotype F158
T5 sequence (P08637 other isoform, or with tags, fused parts or gaps limits assumed): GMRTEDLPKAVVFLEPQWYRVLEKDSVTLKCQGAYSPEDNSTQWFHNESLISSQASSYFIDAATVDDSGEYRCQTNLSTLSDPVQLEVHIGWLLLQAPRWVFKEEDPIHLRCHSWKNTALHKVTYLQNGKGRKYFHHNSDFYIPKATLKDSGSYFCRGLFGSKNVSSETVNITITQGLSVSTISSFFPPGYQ
Assay: SPR (Biacore);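 also: antibody variants captured on sensor chip, Fcγ receptor flowed over at 25 °C, bound receptor normalized to amount of captured antibody, expressed relative to reference antibody set as 100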

| relative binding activity | Binder |
| --- | --- |
| 0 % of GpH7-B3/GpL16-k0 | B1 |
| 51 % of GpH7-B3/GpL16-k0 | B2 |
| 22 % of GpH7-B3/GpL16-k0 | B3 |
| 42 % of GpH7-B3/GpL16-k0 | B4 |
| 32 % of GpH7-B3/GpL16-k0 | B5 |
| 13 % of GpH7-B3/GpL16-k0 | B6 |
| 30 % of GpH7-B3/GpL16-k0 | B7 |
| 45 % of GpH7-B3/GpL16-k0 | B8 |
| 2 % of GpH7-B3/GpL16-k0 | B9 |
| 28 % of GpH7-B3/GpL16-k0 | B10 |
| 47 % of GpH7-B3/GpL16-k0 | B11 |
| 1 % of GpH7-B3/GpL16-k0 | B12 |
| 0 % of GpH7-B3/GpL16-k0 | B13 |
| 85 % of GpH7-B3/GpL16-k0 | B14 |

Target: T3, human FcγRIIb
Assay: SPR (Biacore)

| relative binding activity | Binder |
| --- | --- |
| 5 % of GpH7-B3/GpL16-k0 | B1 |
| 77 % of GpH7-B3/GpL16-k0 | B2 |
| 24 % of GpH7-B3/GpL16-k0 | B3 |
| 63 % of GpH7-B3/GpL16-k0 | B4 |
| 24 % of GpH7-B3/GpL16-k0 | B5 |
| 3 % of GpH7-B3/GpL16-k0 | B6 |
| 27 % of GpH7-B3/GpL16-k0 | B7 |
| 33 % of GpH7-B3/GpL16-k0 | B8 |
| 7 % of GpH7-B3/GpL16-k0 | B9 |
| 66 % of GpH7-B3/GpL16-k0 | B10 |
| 44 % of GpH7-B3/GpL16-k0 | B11 |
| -3 % of GpH7-B3/GpL16-k0 | B12 |
| -1 % of GpH7-B3/GpL16-k0 | B13 |
| 88 % of GpH7-B3/GpL16-k0 | B14 |

From patent US20200199241A1 (Chugai, published 2020)
